The source of these data is publication PMC4538822, “Ribosomal protein L10(L12)4 autoregulates expression of the Bacillus subtilis rplJL operon by a transcription attenuation mechanism”.

Data set [1] concerns the target T1, L10(L12)4 complex (ribosomal proteins L10 and L12) (Bacillus subtilis (source strain of the …, UniProt P42923;P02394 1-166;1-123)).
T1 sequence 1: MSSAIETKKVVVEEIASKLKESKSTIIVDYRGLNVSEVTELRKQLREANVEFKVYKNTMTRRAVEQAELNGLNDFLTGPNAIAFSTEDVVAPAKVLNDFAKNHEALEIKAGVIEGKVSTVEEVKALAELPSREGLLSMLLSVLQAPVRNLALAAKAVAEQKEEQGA
T1 sequence 2: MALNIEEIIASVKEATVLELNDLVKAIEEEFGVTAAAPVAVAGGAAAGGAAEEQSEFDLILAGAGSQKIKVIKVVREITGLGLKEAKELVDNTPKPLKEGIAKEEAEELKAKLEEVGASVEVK
Kind of data set: 3' boundary analysis (native gel EMSA); 1 or 3 uM L10(L12)4; Filter binding: 30 mM Tris-HCl pH 7.6, 175 mM KCl, 3 mM MgCl2, 10% glycerol, 0.2 mg/ml yeast RNA, 50 ug/ml BSA, 0.01 nM RNA, 37 C 30 min; in-line probing: 50 mM Tris-HCl pH 8.3, 20 mM MgCl2, 100 mM KCl, 15% glycerol, 25 C 40 h; boundary: 37 C 30 min. The conditions noted are these: protein: recombinant, tags: N-terminal His6 on L10, copies: 1;4, label: 5' 32P, AAT structure complete (3' end of AAT at +72). (Mobility shift assays separate free from complexed probe on a gel.)

In data set [2] the target is T1, L10(L12)4 complex (ribosomal proteins …). Kind of data set: filter binding; 3 mM Mg2+; yeast RNA competitor 0.2 mg/ml; apparent Kd; Filter binding: 30 mM Tris-HCl pH 7.6, 175 mM KCl, 3 mM MgCl2, 10% glycerol, 0.2 mg/ml yeast RNA, 50 ug/ml BSA, 0.01 nM RNA, 37 C 30 min; in-line probing: 50 mM Tris-HCl pH 8.3, 20 mM MgCl2, 100 mM KCl, 15% glycerol, 25 C 40 h; boundary: 37 C 30 min. The conditions noted are these: protein: recombinant; tags: N-terminal His6 on L10; L12 native; copies: 1;4; label: 5' 32P; anti-antiterminator (AAT) structure with kink-turn.

B1: rplJL leader RNA +13 to +76 (3' boundary, bound) (structured_RNA)
RNA: AAUAUCAUUUAUACCGUAGACAGUAGGGGCCUAACCGCUUAAUUAUCCUACCGAGGUGUAUAUU
On to B1, for which the binding result in data set [1] is reported as “binds”.

B2: rplJL leader RNA +13 to +118 (structured_RNA)
RNA: AAUAUCAUUUAUACCGUAGACAGUAGGGGCCUAACCGCUUAAUUAUCCUACCGAGGUGUAUAUUAUCACAGCUAUUACGUUACGUAUGCUUGUAUAUACAGCCUCC
With B2, the Kd in data set [2] was found to be 33 ± 10 nM.
